# Experimental data as given in patent US20180355064A1 (GLENMARK PHARMACEUTICALS S A, published 2018).
# B1: humanized OKT3 prototype antibody VH/VL (antibody, human IgG1, kappa, V domains shown)
# VH: EVQLVESGGGLVQPGGSLRLSCAASGYTFTRYTIHWVRQAPGKGLEWVAYINPSRGYTRYADSVKGRFTISADTSKNTAYLQMNSLRAEDTAVYYCARYYDDHYCLDYWGQGTLVTVSS
# VL: DIQMTQSPSSLSASVGDRVTITCRASSSVSYVAWYQQKPGKAPKLLIYDTSKLYSGVPSRFSGSRSGTDFTLTISSLQPEDFATYYCQQWSSNPPTFGQGTKVEIKR
# Biological target: T1, human CD3 epsilon on HPB-ALL cells (human, UniProt P07766 23-207)
# T1 construct: whole, on cells; also called human CD3 epsilon positive T cell tumour line
# Experiment: FACS, median fluorescence intensity on HPB-ALL cells
# Protocol: HPB-ALL cells (DSMZ, Braunschweig, Germany, Cat. No: ACC483) were used as CD3 positive cell line for FACS staining. […] After washing, cells were incubated with a 1/200 dilution of anti-Human Fc-PE (EBioscience, Vienna, Austria) for 45 min on ice. Cells were then washed again and resuspended in 200 ul FACS buffer.
binder,measurement,value
B1,binding result,no binding
